The results in this text go back to PMC10132805.

The target of test [1] is N-terminal domain of clathrin (CLTC NTD) (human) (UniProt Q00610).
For test [2], the target named is V domain of programmed cell death 6-interacting protein (ALIX V) (human) (UniProt Q8WUM4).
In test [3] the target is C terminal domain of polyadenylate-binding protein 1 (human) (UniProt P11940).
In test [4] the target is FITC - PDCD6IP 797-809 (Human) (Homo Sapiens).
The target in test [5] is centrosomal protein of 55 kDa EABR domain (CEP55 EABR) (human) (UniProt Q53EZ4).
Chain of centrosomal protein of 55 kDa EABR domain (CEP55 EABR) (human) (Q53EZ4 whole entry, the tested form may be a part): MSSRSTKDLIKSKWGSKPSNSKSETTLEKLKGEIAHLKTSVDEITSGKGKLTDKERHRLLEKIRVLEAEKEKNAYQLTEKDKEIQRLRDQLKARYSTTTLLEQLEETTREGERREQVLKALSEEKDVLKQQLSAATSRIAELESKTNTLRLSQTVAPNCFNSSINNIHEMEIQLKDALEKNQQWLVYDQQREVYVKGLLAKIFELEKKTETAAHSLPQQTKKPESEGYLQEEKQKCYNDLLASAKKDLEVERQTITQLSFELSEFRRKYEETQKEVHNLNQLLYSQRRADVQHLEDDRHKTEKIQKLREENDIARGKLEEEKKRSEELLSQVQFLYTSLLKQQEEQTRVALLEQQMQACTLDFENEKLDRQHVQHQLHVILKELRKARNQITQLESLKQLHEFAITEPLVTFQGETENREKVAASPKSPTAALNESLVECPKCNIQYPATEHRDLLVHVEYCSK
The target in test [6] is FITC - gag 493-502 (HIV1) (Human immunodeficiency virus type 1 group N (isolate YBF30) (HIV-1)).
Test [7] concerns the target FITC - UL56 46-55 (HHV2) (Human herpesvirus 2 (strain HG52) (HHV-2)).
Test [8] deals with E3 ubiquitin-protein ligase NEDD4 WW2 domain (human).
Chain of E3 ubiquitin-protein ligase NEDD4 WW2 domain (human) (P46934 whole entry, the tested form may be a part): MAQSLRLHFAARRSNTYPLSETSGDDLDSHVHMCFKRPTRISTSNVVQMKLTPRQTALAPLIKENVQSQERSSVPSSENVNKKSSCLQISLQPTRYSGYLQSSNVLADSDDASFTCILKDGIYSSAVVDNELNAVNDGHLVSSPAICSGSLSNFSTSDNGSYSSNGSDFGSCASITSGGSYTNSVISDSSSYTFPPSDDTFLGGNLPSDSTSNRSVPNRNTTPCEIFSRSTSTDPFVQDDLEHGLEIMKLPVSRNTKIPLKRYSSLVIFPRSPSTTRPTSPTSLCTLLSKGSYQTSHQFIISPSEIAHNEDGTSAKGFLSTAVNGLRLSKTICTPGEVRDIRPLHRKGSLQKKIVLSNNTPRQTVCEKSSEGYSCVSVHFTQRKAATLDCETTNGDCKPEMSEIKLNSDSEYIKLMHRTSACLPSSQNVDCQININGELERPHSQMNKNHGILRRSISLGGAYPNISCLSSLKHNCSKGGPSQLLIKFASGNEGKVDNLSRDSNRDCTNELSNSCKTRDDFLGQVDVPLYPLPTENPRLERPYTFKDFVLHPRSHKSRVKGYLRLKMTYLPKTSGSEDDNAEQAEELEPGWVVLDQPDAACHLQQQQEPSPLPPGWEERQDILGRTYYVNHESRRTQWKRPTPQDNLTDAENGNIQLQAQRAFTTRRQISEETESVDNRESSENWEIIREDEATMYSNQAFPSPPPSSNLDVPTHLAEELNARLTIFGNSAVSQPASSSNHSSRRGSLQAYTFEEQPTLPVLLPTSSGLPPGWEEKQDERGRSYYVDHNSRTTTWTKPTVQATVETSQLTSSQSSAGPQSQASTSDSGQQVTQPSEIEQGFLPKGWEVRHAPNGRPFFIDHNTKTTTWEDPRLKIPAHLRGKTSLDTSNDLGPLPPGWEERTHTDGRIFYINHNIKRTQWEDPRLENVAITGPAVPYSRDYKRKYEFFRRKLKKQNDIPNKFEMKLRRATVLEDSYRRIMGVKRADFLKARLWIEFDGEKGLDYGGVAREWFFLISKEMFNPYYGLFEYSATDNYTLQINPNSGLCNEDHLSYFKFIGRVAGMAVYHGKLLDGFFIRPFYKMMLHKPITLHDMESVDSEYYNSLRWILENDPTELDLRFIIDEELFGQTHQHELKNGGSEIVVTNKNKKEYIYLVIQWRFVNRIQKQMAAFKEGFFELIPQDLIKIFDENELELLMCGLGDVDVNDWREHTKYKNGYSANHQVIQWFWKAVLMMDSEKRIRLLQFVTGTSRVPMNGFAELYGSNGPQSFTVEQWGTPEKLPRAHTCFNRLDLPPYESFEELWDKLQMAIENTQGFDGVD
Test [9] has as its target E3 ubiquitin-protein ligase NEDD4 WW4 domain (human).
For test [10], the target named is FITC - ARRB2 370-379 (Human) (Homo Sapiens).
Test [11] addresses programmed cell death 6-interacting protein (ALIX) V domain (human).

As a reminder, the Kd is the concentration at which binding is half-saturated. The low end stands for higher affinity, the high end for lower affinity.

Chain of N-terminal domain of clathrin (CLTC NTD) (human) (Q00610 whole entry, the tested form may be a part): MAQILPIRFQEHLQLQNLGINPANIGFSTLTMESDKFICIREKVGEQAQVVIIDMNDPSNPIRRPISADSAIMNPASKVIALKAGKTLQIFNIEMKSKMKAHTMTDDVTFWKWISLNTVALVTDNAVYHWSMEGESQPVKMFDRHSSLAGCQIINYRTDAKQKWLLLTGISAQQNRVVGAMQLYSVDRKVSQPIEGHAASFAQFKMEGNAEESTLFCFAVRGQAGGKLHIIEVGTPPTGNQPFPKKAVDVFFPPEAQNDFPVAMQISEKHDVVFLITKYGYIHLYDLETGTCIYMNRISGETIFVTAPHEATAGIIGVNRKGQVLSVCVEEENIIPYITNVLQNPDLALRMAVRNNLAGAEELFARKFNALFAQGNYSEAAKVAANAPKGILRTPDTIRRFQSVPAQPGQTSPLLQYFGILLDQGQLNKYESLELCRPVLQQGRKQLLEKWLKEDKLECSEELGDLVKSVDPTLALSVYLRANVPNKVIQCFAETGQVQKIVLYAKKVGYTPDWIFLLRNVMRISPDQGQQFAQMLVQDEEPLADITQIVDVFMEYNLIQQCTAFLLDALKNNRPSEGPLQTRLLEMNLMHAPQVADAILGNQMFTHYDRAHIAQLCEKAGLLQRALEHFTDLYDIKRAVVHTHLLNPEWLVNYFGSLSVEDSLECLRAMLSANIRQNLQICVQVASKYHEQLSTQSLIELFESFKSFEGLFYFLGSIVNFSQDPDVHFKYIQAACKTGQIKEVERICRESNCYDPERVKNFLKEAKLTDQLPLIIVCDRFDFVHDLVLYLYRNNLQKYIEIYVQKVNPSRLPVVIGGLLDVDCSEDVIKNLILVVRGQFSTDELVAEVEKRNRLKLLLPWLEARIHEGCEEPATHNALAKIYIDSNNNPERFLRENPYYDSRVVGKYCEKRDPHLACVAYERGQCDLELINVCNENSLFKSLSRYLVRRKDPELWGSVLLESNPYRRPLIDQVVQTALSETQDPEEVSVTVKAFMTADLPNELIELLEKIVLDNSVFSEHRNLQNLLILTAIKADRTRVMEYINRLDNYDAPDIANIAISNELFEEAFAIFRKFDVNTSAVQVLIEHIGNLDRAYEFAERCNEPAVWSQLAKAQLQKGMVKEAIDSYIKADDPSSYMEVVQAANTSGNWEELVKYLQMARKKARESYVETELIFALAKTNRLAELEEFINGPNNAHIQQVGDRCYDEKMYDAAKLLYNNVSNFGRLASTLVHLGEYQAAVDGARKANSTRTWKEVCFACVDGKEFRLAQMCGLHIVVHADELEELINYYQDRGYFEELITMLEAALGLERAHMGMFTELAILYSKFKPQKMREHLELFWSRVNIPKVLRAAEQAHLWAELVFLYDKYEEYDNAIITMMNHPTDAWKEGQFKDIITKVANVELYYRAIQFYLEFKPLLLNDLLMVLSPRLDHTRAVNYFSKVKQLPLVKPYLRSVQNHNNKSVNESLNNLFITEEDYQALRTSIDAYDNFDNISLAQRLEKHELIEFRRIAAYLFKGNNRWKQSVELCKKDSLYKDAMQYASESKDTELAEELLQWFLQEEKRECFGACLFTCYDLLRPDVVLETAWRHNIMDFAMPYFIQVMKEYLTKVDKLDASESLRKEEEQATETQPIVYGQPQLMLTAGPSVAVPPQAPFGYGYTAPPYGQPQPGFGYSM
Chain of V domain of programmed cell death 6-interacting protein (ALIX V) (human) (Q8WUM4 whole entry, the tested form may be a part): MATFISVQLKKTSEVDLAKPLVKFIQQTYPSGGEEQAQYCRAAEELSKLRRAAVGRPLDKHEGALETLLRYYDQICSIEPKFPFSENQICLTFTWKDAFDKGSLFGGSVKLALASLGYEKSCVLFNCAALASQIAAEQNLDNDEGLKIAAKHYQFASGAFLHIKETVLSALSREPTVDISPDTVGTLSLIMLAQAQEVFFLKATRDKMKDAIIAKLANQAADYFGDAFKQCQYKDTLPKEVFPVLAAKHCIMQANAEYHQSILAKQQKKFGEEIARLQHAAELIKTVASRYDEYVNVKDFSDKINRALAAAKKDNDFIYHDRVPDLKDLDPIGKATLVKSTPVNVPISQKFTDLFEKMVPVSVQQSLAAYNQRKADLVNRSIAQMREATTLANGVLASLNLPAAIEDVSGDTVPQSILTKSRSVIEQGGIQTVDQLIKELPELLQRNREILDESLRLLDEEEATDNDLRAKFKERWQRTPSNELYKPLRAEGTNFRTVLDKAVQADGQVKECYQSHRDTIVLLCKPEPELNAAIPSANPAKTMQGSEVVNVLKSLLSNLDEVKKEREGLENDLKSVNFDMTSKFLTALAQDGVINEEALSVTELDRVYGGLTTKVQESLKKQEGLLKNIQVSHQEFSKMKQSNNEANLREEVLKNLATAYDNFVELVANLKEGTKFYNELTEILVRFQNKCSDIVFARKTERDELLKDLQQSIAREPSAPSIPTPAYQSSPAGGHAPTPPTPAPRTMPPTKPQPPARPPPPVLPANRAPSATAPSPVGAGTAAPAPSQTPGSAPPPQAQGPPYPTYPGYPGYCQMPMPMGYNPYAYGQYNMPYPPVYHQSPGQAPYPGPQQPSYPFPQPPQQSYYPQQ
Chain of E3 ubiquitin-protein ligase NEDD4 WW4 domain (human) (P46934 whole entry, the tested form may be a part): as the sequence (P46934 whole entry, the tested form may be a part) above
Chain of C terminal domain of polyadenylate-binding protein 1 (human) (P11940 544-623): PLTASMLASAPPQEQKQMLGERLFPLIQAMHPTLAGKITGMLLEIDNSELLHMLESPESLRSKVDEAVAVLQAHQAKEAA

Turning to mu-NS 705-720 (MRV1) (peptide), the Kd in test [1] is 34 µM. Nsp4 118-142 (BAV) (peptide) had a dissociation constant Kd in test [2] of 160 µM. In [1], RdRp 1840-1855 (SVV) (peptide) displayed an equilibrium dissociation constant (Kd) of 800 µM. In test [2], Nsp4 119-134 (BAV) (peptide) registered a Kd of 101 µM. Consider N_(2-17) (BeV) peptide, for which the fold weaker affinity than PAIP2(108-123) in test [3] came to 10 fold. For “centrosomal protein of 55 kDa EABR domain (CEP55 EABR) (from UniProt Q53EZ4 1-464) (domain or fragment)”, the Kd in test [4] is 0.31 µM.

The substance NP 602-617 (REBOV) (peptide) returned a Kd in [5] of 2.18 µM.

For the substance “V domain of programmed cell death 6-interacting protein (ALIX V) (from UniProt Q8WUM4 1-868) (domain or fragment)”, the Kd in [6] came to 2.6 µM. In the case of “E3 ubiquitin-protein ligase NEDD4 WW4 domain (domain or fragment)”, the Kd in test [7] came to 82 µM. Consider VP40 1-20 (SEBOV) (peptide), for which the Kd worked out at 22 µM in [8] and 68 µM in [9]. On to “N-terminal domain of clathrin (CLTC NTD) (from UniProt Q00610 1-1675) (domain or fragment)”, for which the equilibrium dissociation constant (Kd) in test [10] was found to be 26 µM.

In turn, “E3 ubiquitin-protein ligase NEDD4 WW2 domain (domain or fragment)” had a Kd in test [7] of 16 µM. As for P 177-192 (RABV) (peptide), the dissociation constant (Kd) in [5] turned out to be 22.3 µM. Substance Nsp3 1765-1780 (EEEV) (peptide) showed an equilibrium dissociation constant (Kd) in [1] of 28 µM. In test [11], Nsp4_(118-142) (BAV) peptide displayed a fold weaker affinity than the syntenin-2 peptide of more than 300 fold.
